Results on 23 molecules are retold here after patent US20260109770A1 (REMD BIOTHERAPEUTICS, published 2026).

Substitutions are numbered along the chain they refer to. Bounds are passed on as bounds.

Sequences and labels used below:
T1: human CCR4 (hCCR4) (human, UniProt P51679 1-360)
T1 construct: whole, on cells
T1 sequence (looked up): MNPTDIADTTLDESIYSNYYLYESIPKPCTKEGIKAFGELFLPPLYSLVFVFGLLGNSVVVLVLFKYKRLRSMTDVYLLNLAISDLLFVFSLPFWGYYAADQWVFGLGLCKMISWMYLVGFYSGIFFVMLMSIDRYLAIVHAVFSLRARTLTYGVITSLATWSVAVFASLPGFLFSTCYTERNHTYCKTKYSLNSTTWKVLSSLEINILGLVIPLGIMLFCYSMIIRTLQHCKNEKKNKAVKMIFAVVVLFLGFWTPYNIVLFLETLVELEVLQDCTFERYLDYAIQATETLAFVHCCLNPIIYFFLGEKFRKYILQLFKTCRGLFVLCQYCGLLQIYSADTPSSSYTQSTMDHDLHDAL

B1: mouse antibody 46A5C4B1 (MAb 2) (antibody, V domains shown)
VH: EVQLVESGGGLVQPKGSLKLSCAASGFSFNAYAMNWVRQAPGKGLEWVARIRSKSNNYATYYADSVKDRFIISRDDSESMLYLQMNNLKTEDTAMYFCVRGGTYGSTSYFDYWGQGTTLTVSS
VL: DIVMTQAAPSVPVTPGESVSISCRSSKSLLHSNGNTYLYWFLQRPGQSPQLLIYRMSNLASGVPDRFSGSGSGTAFTLRISRVEAEDVGVYYCMQHLEYPFTFGGGTKLEIK
notes: Mouse monoclonal antibody from a hybridoma; also called A2
B2: mouse antibody 516D7D12 (MAb 10) (antibody, V domains shown)
VH: EVQLVESGGGLVQPKGSLKLSCAASGFSFNTYAMNWVRQAPGKGLEWVARIRTKSNNYATYYADSVKDRFTISRDDSESMLYLQMNNLKTEDTAMYYCVRGGSGLRYVRYFDVWGTGTTVTVSS
VL: B1 VL with A8T, D65E, T74S, I80V, G105S
B3: mouse antibody 529D10C10 (MAb 6) (antibody, V domains shown)
VH: B2 VH with K15R, T31A, N86I, L105I, R109K
VL: B1 VL with D65E, T74S, G105S
B4: mouse antibody 506G6G5 (MAb 8) (antibody, V domains shown)
VH: B2 VH with T53S, L105I, R106S
VL: B1 VL with T74S, G105S
B5: mouse antibody 504E12D8D12 (MAb 18) (antibody, V domains shown)
VH: B2 VH with D64A, S79T, R106N
VL: B1 VL with P12F, T14I, T74S, G105S
B6: mouse antibody 525F2F3F11 (MAb 11) (antibody, V domains shown)
VH: B2 VH with S79N
VL: B1 VL with A8T, D65E, T74S, I80V, G105S
B7: mouse antibody 531A3E12H8 (MAb 17) (antibody, V domains shown)
VH: B2 VH with Y61F, D75H, L105I
VL: B1 VL with P12T, N58D, T74S, G105S
B8: mouse antibody 507B6B10 (MAb 14) (antibody, V domains shown)
VH: B2 VH with T53S, L105I
VL: B1 VL with L30Q, T36I, T74S, G105S
B9: mouse antibody 536H9D10 (MAb 7) (antibody, V domains shown)
VH: B2 VH with K15G, T31A, N86I, L105I, R109K
VL: B1 VL with D65E, T74S, G105S
B10: mouse antibody 508C11A12 (MAb 5) (antibody, V domains shown)
VH: B2 VH with S79N, M80I, L105I, R106K
VL: B1 VL with D65E, T74S, G105S
B11: mouse antibody 531A6A3 (MAb 9) (antibody, V domains shown)
VH: B2 VH with N30K, S79T, R106N
VL: B1 VL with T74S, G105S
B12: mouse antibody 526G1C12 (MAb 16) (antibody, V domains shown)
VH: B2 VH with N30K, K43E, S79T, R106N, T116P
VL: B1 VL with P12L, I21F, Y54F, T74S, G105S
B13: mouse antibody 80E4D1F11 (MAb 3) (antibody, V domains shown)
VH: B1 VH with A31T, D68A, I71T
VL: B1 VL
notes: Mouse monoclonal antibody from a hybridoma; also called A3
B14: mouse antibody 41E1C2A5 (MAb 1) (antibody, V domains shown)
VH: B1 VH with I71T, S79T, T107S
VL: B1 VL with S22P, E110Q, K112R
notes: Mouse monoclonal antibody from a hybridoma; also called A1
B15: mouse antibody 530H3G7D9 (MAb 12) (antibody, V domains shown)
VH: EVQLVESGGGLVQPKGSLKLSCAASGFSFNTYAMNWVRQAPGKGLDWVARIRSKSNNYATYYADSVKDRFTISRDDSESMLYLQMNNLKTEDTAMYFCVRQTYGSRDYAMDYWGQGTSVTVSS
VL: DVVMTQTPLSLPVSLGDQASISCRSSQSLVHSNGNTYLHWYLQKPGQSPKLLIYKVSNRFSGVPDRFSGSGSGTDFTLKISRVEAEDLGVYFCCQSTHVPPYTFGGGTKLEIK
B16: mouse antibody 538H5G10 (MAb 19) (antibody, V domains shown)
VH: B15 VH with T31A, D46E, Y58F, F97Y
VL: B15 VL with Q18R, K50R, C94S, S96N
B17: mouse antibody 509H4E10B3 (MAb 15) (antibody, V domains shown)
VH: B15 VH with K15R, T31A, D46E, Y58F, F97Y
VL: B15 VL with Q18R, K50R, C94S
B18: mouse antibody 531B9B1C9 (MAb 13) (antibody, V domains shown)
VH: B15 VH with T31A
VL: B15 VL
B19: mouse antibody 419C7B3B2 (MAb 4) (antibody, V domains shown)
VH: EVQLQQSGPELVKPGSSVKISCKASGYTFTDYNMDWVKQSHGKSLEWIGAINPNNGGTGYTQKFKGKATLTVDKSSSTAFMELRSLTSEDSAVYYCARRGVYMFAYWGQGTLVTVSA
VL: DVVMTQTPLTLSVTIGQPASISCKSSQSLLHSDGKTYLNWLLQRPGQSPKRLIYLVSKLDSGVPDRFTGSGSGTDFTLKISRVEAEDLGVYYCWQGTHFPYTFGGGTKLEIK
B20: murine-human chimeric (human IgG1) antibody 516D7D12 (antibody, V domains shown)
VH: B2 VH
VL: DIVMTQATPSVPVTPGESVSISCRSSKSLLHSNGNTYLYWFLQRPGQSPQLLIYRMSNLASGVPERFSGSGSGSAFTLRVSRVEAEDVGVYYCMQHLEYPFTFGSGTKLEIKR
notes: Chimeric antibody derived from murine antibody A10 and human IgG1
B21: murine-human chimeric (human IgG1) antibody 504E12D8D12 (antibody, V domains shown)
VH: B2 VH with D64A, S79T, R106N
VL: B20 VL with T8A, P12F, T14I, E65D, V80I
notes: Chimeric antibody derived from murine antibody A18 and human IgG1; also called chimeric 504E12D8D12 mAb
B22: murine-human chimeric (human IgG1) antibody 525F2F3F11 (antibody, V domains shown)
VH: B2 VH with S79N
VL: B20 VL
notes: Chimeric antibody derived from murine antibody A11 and human IgG1
B23: murine-human chimeric (human IgG1) antibody 41E1C2A5 (antibody, V domains shown)
VH: B1 VH with I71T, S79T, T107S
VL: B20 VL with T8A, S22P, E65D, S74T, V80I, S105G, E110Q, K112R

In one experiment the target is T2, human C-C chemokine receptor type 8 (hCCR8) (human, UniProt P51685 1-355). Description: cell-based or functional assay.
T2 sequence (P51685 whole entry): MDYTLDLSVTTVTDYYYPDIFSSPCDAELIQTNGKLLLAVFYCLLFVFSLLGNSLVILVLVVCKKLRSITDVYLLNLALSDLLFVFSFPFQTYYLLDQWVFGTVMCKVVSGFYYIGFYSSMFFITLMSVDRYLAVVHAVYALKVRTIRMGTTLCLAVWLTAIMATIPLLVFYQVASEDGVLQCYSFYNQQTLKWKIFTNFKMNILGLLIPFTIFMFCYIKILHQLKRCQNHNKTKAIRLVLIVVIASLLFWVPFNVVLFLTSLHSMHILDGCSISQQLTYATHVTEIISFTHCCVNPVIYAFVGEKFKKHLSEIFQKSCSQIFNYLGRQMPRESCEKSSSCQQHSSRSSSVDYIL
For B1, the “inhibition of β-arrestin production (CCR8 CHO-K1 β-arrestin bioassay, 2 nM hCCL1, subclone supernatant)” value (shortened to “inhibition of β-arrestin production”) is at least 50%.
As to B2, the “inhibition of β-arrestin production” value was at least 50%.
Regarding B3, the “inhibition of β-arrestin production” value is at least 50%.
As to B4, the “inhibition of β-arrestin production” value is at least 50%.
Consider B5, for which the “inhibition of β-arrestin production” value was at least 50%.
Turning to B6, the “inhibition of β-arrestin production” value was at least 50%.
For B7, the “inhibition of β-arrestin production” value is at least 50%.
In the case of B8, the “inhibition of β-arrestin production” value is at least 50%.
On to B9, for which the “inhibition of β-arrestin production” value is at least 50%.
With B10, the “inhibition of β-arrestin production” value is at least 50%.
As for B11, the “inhibition of β-arrestin production” value is at least 50%.
Still for that read-out and setting: to B12 belongs at least 50%; to B13, at least 50%.
Regarding B14, the “inhibition of β-arrestin production” value is at least 50%.
In the case of B15, the “inhibition of β-arrestin production” value was at least 50%.
With B16, the “inhibition of β-arrestin production” value is at least 50%.
As for B17, the “inhibition of β-arrestin production” value is at least 50%.
Take B18: the “inhibition of β-arrestin production” value is at least 50%.
Regarding B19, the “inhibition of β-arrestin production” value is at least 50%.

A further experiment deals with T2, human C-C chemokine receptor type 8 …. Briefly: cell-based or functional assay. The source holds these as a separate data set.
Consider B1, for which the “IC50 (nM), antagonist activity measured by β-arrestin assay” value amounted to 6.24 nM.
Same read-out and setting: with B13 the figure was 7.11 nM; with B14, 4.68 nM; with B20, 1.51 nM.
On the same count and under the same terms, with B21 the figure was 0.867 nM; with B22, 1.52 nM.

A further experiment shares this target. Briefly: cell-based or functional assay. This is another data set of the same source.
As to B23, the “EC50 of ADCC activity (column head prints IC50 (nM)); ADCC/NFAT-reporter-Jurkat bioassay” value stood at 0.049 nM.
On the same count and under the same terms, with B21 the figure was 0.015 nM.

The target of the next experiment is T1, human CCR4 (hCCR4). Description: flow cytometry on hCCR4-expressing CHO-K1 cells against parental CHO-K1 cells. The protocol:
The antibodies were further screened for binding to human CCR4 (hCCR4) by flow cytometry. The antibodies were incubated with CHO-K1 cells and hCCR4-expressing CHO-K1 cells for 60 minutes at 4° C. The cells were washed thoroughly with PBS buffer and were then incubated with FITC-conjugated goat anti-mouse IgG Fc antibody or anti-human IgG Fc antibody. Mean Fluorescence Intensity (MFI) of antibody binding on the cells were analyzed by flow cytometry (Table 7).
As to B1, the binding result is listed as “no binding”.
Same read-out and setting: with B13 the entry was “no binding”.
Consider B14, for which the binding result is reported as “no binding”.
As for B20, the binding result is “no binding”.
B21: the binding result is “no binding”.
On to B22, for which the binding result is reported as “no binding”.
